Measured values taken from PMC5529513.

Key:
[1] = biological target: ephrin-A5 Fc (UniProt P52803); assay: ELISA; conditions: Fc fusion
[2] = biological target: ephrin-B3 Fc (UniProt Q15768); assay: ELISA; conditions: Fc fusion
[3] = biological target: ephrin-A5 Fc (UniProt P52803); assay: SPR; conditions: Fc fusion
[4] = biological target: ephrin-A5 Fc (UniProt P52803); assay: SPR; BIAcore T200; ephrin-A5 Fc amine-coupled on CM5 chip; EphA4 Fc proteins 500 to 50 nM in 10 mM HEPES pH 7.4, 150 mM NaCl, 3 mM EDTA, 0.05% Surfactant P20; 30 µl/min; bivalent analyte model and steady state affinity model
[5] = biological target: EphA4 Fc (wild type): human EphA4 ectodomain fused to IgG4 Fc (human) (UniProt P54764); assay: AUC; sedimentation velocity, 10 mM potassium phosphate pH 7.6, 20 °C, 40,000 rpm, c(s) fit with SEDFIT; oligomeric state of the Fc fusion
[6] = biological target: triple mutant of EphA4 Fc (N235Q, N340Q, N408Q) (human) (UniProt P54764); assay: as above

Chain of UniProt Q15768 (Q15768 28-226): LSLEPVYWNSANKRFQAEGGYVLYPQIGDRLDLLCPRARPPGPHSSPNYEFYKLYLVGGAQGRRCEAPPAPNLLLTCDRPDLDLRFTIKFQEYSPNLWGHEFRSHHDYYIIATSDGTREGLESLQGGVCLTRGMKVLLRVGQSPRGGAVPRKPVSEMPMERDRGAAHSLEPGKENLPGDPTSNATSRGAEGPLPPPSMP

EphA4 Fc (wild type): human EphA4 ectodomain fused to IgG4 Fc (from UniProt P54764-1 20-547)
Kd [1]: 0.51 nM
Kd [2]: 23.9 nM
Kd [3]: 318 nM

EphA4 Fc (wild type): human EphA4 ectodomain fused to IgG4 Fc (from UniProt P54764-1 20-547) (Fc fusion)
ka1 (bivalent analyte model) [4]: 56300 M⁻¹ s⁻¹
ka2 (bivalent analyte model) [4]: 0.000112 RU^-1s^-1
kd1 (bivalent analyte model) [4]: 0.0224 s⁻¹
kd2 (bivalent analyte model) [4]: 0.00106 s⁻¹
stoichiometry N [5]: 2

triple mutant of EphA4 Fc (N235Q, N340Q, N408Q) (from UniProt P54764-1 20-547) (Fc fusion)
ka1 (bivalent analyte model) [4]: 115000 M⁻¹ s⁻¹
ka2 (bivalent analyte model) [4]: 5.4e-05 RU^-1s^-1
kd1 (bivalent analyte model) [4]: 0.0184 s⁻¹
kd2 (bivalent analyte model) [4]: 2.66e-06 s⁻¹
stoichiometry N [6]: 2
